Measurements as given in patent US20030109481, “Tumour-cell specific gene expression and its use in cancer therapy” (published 2003).

B1: region 2 mutant 3 (dsDNA)
DNA 1: AATCCCGCCCGGATCCGCAGG
DNA 2: CCTGCGGATCCGGGCGGGATT
B2: region 2 mutant 1 (dsDNA)
DNA 1: AATCCCACCCGGCACCTCAGG
DNA 2: CCTGAGGTGCCGGGTGGGATT
B3: Skp2 promoter region 2 (dsDNA)
DNA 1: AATCCCGCCCGGCGCCGCAGG
DNA 2: CCTGCGGCGCCGGGCGGGATT
B4: Skp2 promoter region 4 (dsDNA)
DNA 1: AGTTCGCGGGTCC
DNA 2: GGACCCGCGAACT
B5: Skp2 promoter region 1 (dsDNA)
DNA 1: GCTCCGGGAAAA
DNA 2: TTTTCCCGGAGC
B6: region 2 mutant 2 (dsDNA)
DNA 1: AATCCATCCCGGCACCTCAGG
DNA 2: CCTGAGGTGCCGGGATGGATT
B7: region 2 mutant 4 (dsDNA)
DNA 1: AATCCCGCCCGGCGCATCAGG
DNA 2: CCTGATGCGCCGGGCGGGATT
B8: region 3 mutant (dsDNA)
DNA 1: AGAGCATGCAGAACTCCGCACGAGCGGTGG
DNA 2: CCACCGCTCGTGCGGAGTTCTGCATGCTCT
B9: Skp2 promoter region 3 (dsDNA)
DNA 1: AGAGCGGGATGCAGAACTCCGCGCGCGCGGTGG
DNA 2: CCACCGCGCGCGCGGAGTTCTGCATCCCGCTCT

Key:
Details in all cases: tags: baculovirus-expressed
[1] = biological target: T1, E2F-1/DP1 heterodimer (UniProt Q01094;Q14186 Q01094:1-437,Q14186:1-410); experiment: EMSA; stated as similar results to first mutation
[2] = biological target: T1, E2F-1/DP1 heterodimer; experiment: EMSA; mutation abolishes binding; promoter activity reduced at least 2-fold but not activation by E2F-1
[3] = biological target: T1, E2F-1/DP1 heterodimer; experiment: EMSA
[4] = biological target: T1, E2F-1/DP1 heterodimer; experiment: EMSA; mutation abolished E2F-1 binding; promoter activity reduced about 2-fold and E2F-1 activation suppressed

T1 sequence (Q01094 whole entry, chain 1 of 2): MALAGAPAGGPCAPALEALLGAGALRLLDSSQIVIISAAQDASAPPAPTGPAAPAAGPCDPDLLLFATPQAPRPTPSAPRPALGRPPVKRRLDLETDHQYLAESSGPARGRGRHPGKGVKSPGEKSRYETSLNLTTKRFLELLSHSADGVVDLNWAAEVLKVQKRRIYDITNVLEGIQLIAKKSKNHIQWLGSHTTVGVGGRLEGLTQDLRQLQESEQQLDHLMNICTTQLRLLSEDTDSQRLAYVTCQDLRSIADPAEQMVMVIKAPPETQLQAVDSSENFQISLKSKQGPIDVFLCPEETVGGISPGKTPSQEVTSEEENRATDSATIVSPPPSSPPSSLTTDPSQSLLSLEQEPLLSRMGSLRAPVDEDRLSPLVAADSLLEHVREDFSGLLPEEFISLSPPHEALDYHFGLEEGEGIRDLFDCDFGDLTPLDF
T1 sequence (Q14186 whole entry, chain 2 of 2): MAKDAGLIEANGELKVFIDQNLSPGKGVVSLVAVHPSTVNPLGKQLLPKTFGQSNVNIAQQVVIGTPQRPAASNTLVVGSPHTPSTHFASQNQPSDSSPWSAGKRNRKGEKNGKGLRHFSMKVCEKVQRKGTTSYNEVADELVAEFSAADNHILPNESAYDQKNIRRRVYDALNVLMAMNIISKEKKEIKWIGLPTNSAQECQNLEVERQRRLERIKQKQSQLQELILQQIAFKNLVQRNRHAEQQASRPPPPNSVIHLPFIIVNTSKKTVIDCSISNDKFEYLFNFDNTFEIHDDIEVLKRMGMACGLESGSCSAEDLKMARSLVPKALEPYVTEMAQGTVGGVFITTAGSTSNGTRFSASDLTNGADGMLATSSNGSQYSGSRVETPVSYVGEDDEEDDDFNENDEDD

Row | Binder | binding result [1] | binding result [3] | further results
1 | B1 | no binding | – | –
2 | B2 | – | – | binding result [2]: no binding
3 | B3 | – | binds | –
4 | B4 | – | binds | –
5 | B5 | – | no binding | –
6 | B6 | no binding | – | –
7 | B7 | no binding | – | –
8 | B8 | – | – | binding result [4]: no binding
9 | B9 | – | binds | –
